Experimental data: PMC2570500 (EMBO Reports, 2008)

Molecular target: N-terminal domain of Saccharomyces cerevisiae Hsp82 (1–210) (Saccharomyces cerevisiae, UniProt P02829 1-210)
Assay: NMR titration

Chain of N-terminal domain of Saccharomyces cerevisiae Hsp82 (1–210) (P02829 1-210): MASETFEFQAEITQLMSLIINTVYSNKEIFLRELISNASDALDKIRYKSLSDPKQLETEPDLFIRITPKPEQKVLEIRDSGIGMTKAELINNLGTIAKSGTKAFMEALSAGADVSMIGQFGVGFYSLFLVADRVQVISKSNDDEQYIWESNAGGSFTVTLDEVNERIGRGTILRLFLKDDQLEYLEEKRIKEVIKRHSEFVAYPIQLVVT

binding result | Kd [µM] | Binder
binds | – | CS domain of Arabidopsis SGT1a (149–253), NMR sample (domain or fragment) TAKYRHEYYQKPEEVVVTVFAKGIPKQNVNIDFGEQILSVVIEVPGEDAYYLQPRLFGKIIPDKCKYEVLSTKIEICLAKADIITWASLEHGKGPAVLPKPNVSS
– | 27 ± 3 | CS domain of S. cerevisiae Sgt1 (176–290) (domain or fragment) ETAPQESPKFKIDWYQSSTSVTISLFTVNLPESKEQVNIYISPNDRRTLSISYQVPKSGSEFQYNAKLSHEVDPKAVSLKIFPKKLEITLSKIDSTQWKKLEEDILTESSRLSDE
